Assay results reported in publication doi:10.1101/2024.04.19.590371 (bioRxiv, 2024).
Blank lines part the entries; values can stand above or below the binder they belong to.

Key:
His+SUMO-atDjA1 = target: T1, His+SUMO-atDjA1 (Arabidopsis thaliana, UniProt Q94AW8 1-420); assay: pull-down
T1 sequence (looked up): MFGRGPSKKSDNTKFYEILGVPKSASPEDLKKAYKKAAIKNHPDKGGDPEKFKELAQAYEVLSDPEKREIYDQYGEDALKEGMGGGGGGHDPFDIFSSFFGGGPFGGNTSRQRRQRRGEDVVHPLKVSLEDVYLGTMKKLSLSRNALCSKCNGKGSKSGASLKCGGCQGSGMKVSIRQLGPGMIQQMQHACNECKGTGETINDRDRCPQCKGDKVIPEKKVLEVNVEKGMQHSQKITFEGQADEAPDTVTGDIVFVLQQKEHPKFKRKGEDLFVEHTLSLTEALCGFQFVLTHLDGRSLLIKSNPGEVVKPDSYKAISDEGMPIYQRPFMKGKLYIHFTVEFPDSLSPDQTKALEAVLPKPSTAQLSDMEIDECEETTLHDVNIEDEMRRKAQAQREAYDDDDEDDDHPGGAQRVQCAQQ

His+SUMO-atDjA2 = target: T2, His+SUMO-atDjA2 (Arabidopsis thaliana, UniProt P42825 1-419); assay: pull-down
T2 sequence (looked up): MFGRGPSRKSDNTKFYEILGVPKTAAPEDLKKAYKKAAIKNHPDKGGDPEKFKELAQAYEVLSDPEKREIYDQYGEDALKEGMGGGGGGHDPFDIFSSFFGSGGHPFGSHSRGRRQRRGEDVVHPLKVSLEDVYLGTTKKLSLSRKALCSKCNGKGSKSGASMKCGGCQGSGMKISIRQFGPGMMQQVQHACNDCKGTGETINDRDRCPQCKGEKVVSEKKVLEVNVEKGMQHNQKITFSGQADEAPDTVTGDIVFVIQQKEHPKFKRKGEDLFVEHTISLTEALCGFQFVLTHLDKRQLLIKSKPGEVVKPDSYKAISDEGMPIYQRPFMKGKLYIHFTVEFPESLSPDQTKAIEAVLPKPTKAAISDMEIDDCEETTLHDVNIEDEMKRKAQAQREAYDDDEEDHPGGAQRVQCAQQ

binding result (His+SUMO-atDjA1): binds
binding result (His+SUMO-atDjA2): binds
B1: GST-Metaxin (cytosolic domain, aa 1-191) (domain or fragment, Arabidopsis thaliana, UniProt O64471 1-191, looked up)
chain: MEGDQETNVYTLVARKPSFDLPTACPNCLPAYIYLKLAQLPFELAFNSTFPDSDELPYFESDTYVAYNNEDGGVIEKLKKDGIVNLDSQLQSLSDYLSLKALIVSWLEEALTYEIWVGTEGISTSKIYYSDLPWVISKVLFYKQTYLAKNRLGITKENAEQREKQIYKRASEAYEALSTRLGEQKFLFEDR

binding result (His+SUMO-atDjA2): binds
B2: GST-OM64 (cytosolic domain, aa 488-586) (domain or fragment, Arabidopsis thaliana, UniProt F4KCL7 488-586, looked up)
chain: SEVMKEKGNAAYKGKQWNKAVNFYTEAIKLNGANATYYCNRAAAFLELCCFQQAEQDCTKAMLIDKKNVKAYLRRGTARESLVRYKEAAADFRHALVLE

binding result (His+SUMO-atDjA1): binds
B3: GST-Tom9.2 (cytosolic domain, aa 1-53) (domain or fragment, Arabidopsis thaliana, UniProt Q9FNC9 1-53, looked up)
chain: MAAKRIGAGKSGGGDPNILARISNSEIVSQGRRAAGDAVEVSKKLLRSTGKAA
